The values below come from article doi:10.1101/2025.11.21.687491v1.

Holding throughout (experiment): purified protein
Holding throughout (settings): GSH co-substrate, pH 7.0, 37 °C

Substrate in data set [1]: CCCCC/C=C/C=C/C(CCCCCCCC(=O)O)OO
Substrate in data set [2]: CCCC/C=C/C(C/C=C\CCCCCCCC(=O)O)OO
Substrate in data set [3]: CCCCCC(/C=C/C=C\CCCCCCCC(=O)O)OO
Substrate in data set [4]: CCCCCC(/C=C/C=C/CCCCCCCC(=O)O)OO
Substrate in data set [5]: CCCCC/C=C\CC(/C=C/CCCCCCC(=O)O)OO

B1: AtGSTU17 (U17) (Arabidopsis thaliana) (protein)
chain: MASSDVKLIGAWASPFVMRPRIALNLKSVPYEFLQETFGSKSELLLKSNPVHKKIPVLLHADKPVSESNIIVEYIDDTWSSSGPSILPSDPYDRAMARFWAAYIDEKWFVALRGFLKAGGEEEKKAVIAQLEEGNAFLEKAFIDCSKGKPFFNGDNIGYLDIALGCFLAWLRVTELAVSYKILDEAKTPSLSKWAENFCNDPAVKPVMPETAKLAEFAKKIFPKPQA
Usually Km stands for the concentration of substrate that gives half-maximal velocity. Broadly, the kcat is the number of substrate molecules converted per active site and unit of time at saturation. Regarding B1, the Km in the data set “purified protein [1]” came out at 8.97 µM; in “purified protein [2]”, 20.4 µM; in “purified protein [3]” it was 10.36 µM; in the data set “purified protein [4]” it was 24.65 µM; in the data set “purified protein [5]” it was 9.27 µM. The kcat in the data set “purified protein [1]” stood at 1.13 s⁻¹; in the data set “purified protein [2]”, 2.71 s⁻¹; in the data set “purified protein [3]”, 2.55 s⁻¹; in the data set “purified protein [4]”, 2.44 s⁻¹; in “purified protein [5]”, 1.46 s⁻¹.
